Reference: the nanobody polyreactivity screen of Harvey et al. (2022)

Assay: yeast display, Sf9 membrane polyspecificity reagent, FACS + sequencing; frameworks hold sequencing errors
Outline: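 Genes from sorted yeast were amplified by colony PCR, read by MiSeq 2 × 250 sequencing and filtered on CDR length. These cells carried a synthetic nanobody library in Saccharomyces cerevisiae BJ5465 and were sorted by FACS into low and high (top ~1%) gates on anti-HA and streptavidin fluorescence. Polyreactivity is labelled according to the gate of origin.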

| Sequence | polyreactivity (PSR sort gate) |
| --- | --- |
| QVQLVESGGGLVQAGGSLRLTCAASGSSLDHYTMGWYRQAPGKEMELVAGIRWTGGRTYYADSVKGRFTISRDNAKNTVYLQMNSLKQEDNAVYYCAKTGWYGPVLRFYYWGQGTQVTVSS | high polyreactivity |
| QVQLVESGGGLVQAGGSLRLSCAASGSIFKQNTMGWYRQAPGKETELVAAISSGGSTYYADSVKGRFTISRDNAKNTVYLQMNSLKPEDTAVYYCAKYYDWDYYLPLEGDYWGQGTQVTVSS | low polyreactivity |
| QVQLVESGGGLVQAGGSLRLSCAASGFTLKSYAMGWYRQAPGKERELVASISRRGGSTYYADSVKGRFTISRDNAKNTVYLQMNSLKPEDTAVYYCNADYVRYPGNAYDYWGQGTQVTVSS | high polyreactivity |
| QVQLVESGGGLVQAGGSLRLSCAASGFTFVGNAMGWYRQAPGLERELVAAITRGGSSYYADSVKGRFTISRDNAKKTVYLQMNSLKPEDTAVYYCNAELPVHWSWYDYWGQGTQVTVSS | low polyreactivity |
| QVQLVESGGGLVQAGGSLRLSCAASGFTFRNYAMGWYRQAPGKERELVAAISKRGGNTYYADSVKGRFTISRDNAKNTVYLQLYSLKREDTAVYYCAADYQFSQDVWHFGYWGLGTQVTVSS | high polyreactivity |
| QVQLVESGGGLVQAGGSLRLSCDASGLIFSWYAMGWYRQPPGKERELVAAISKGGGSTYYADSVKGRFTISRDNAKITVYLQMNSLKPEDTAVYYCAAASSYGYGYWGQGTQVTVSS | high polyreactivity |
| QVQLVESGGGLVQAGGSLRLICAASGSTFTPNDMGWYRQAPGKERELVADISNYADSVKGRFTISRDNAKNTVYLQMNSLKPEDSAVYYCAAEWGGDRYGLYVVSWWYDYWGQGTQVTLSS | low polyreactivity |
| QVQLVESGGGLVPAGGSLRLSCAASGSIFGRNTMGWYRQAPGKERELVAAISSRGTSTYYADSVKGRFTISRDNAKNTVYLQMNSLKPEDTAVYYSAARVYPYNYWGQGTQVTVSS | high polyreactivity |
| QVQLVEAGGGLVQAGGSLRLSCAASAFTFSPTAMGWYRQAPGKERELGAAIDWSGDRTYYADSVKGRFTISRAHAKNTVYLQMNSLKPEDTGVYYCNVVRRSPGDYSYYYWGQGSQVTVSS | low polyreactivity |
| QVQLVESGGGLVQAGGSLRLSCAASGYTFYRYAMGWYRQAPGKERELVASITRSGGSTYYADSVKGRFTISRDNAKNTVYLQMNSLKPEDTAVYYCAAEYEFGHSSTPMDYWGQGTQVTVSS | high polyreactivity |
| QVQLVESGGGLVQAGGSLRLSCAASGRIFKTYAMGWYRQAPGKERELVAAITWDVVRTYYADSVKGRFTISRDNAKNTVYLQMNSLKPEETAVYYCAAEGIRRSQRFNYWGQGTQVTVSS | high polyreactivity |
| QDQLVESGGGLVQAGGSLRLSCAASGFIFGRYTMGWYRQAPGQDRELVAAISSRGGSTYDADSGKGRFTISRDNAKNTVYLQMNSLKPEDTAVYYCNALRRPSTEGRDYWGQGTQVTVSS | high polyreactivity |
| QVQLVESGGGIVQAGGSLRLSCAASGSTFVTNVMGWYRQAPGKERELVAAISYSGGNTYYEDSVKGRFTISRDNANNTVYLHMNSLKPEDTAVYYCNAYRVVHPCEYDYWGQGTQVTVSS | high polyreactivity |
| QVQLVESGGSLVQARGSLRLSCAASGFIFPYYVMGGYRHAPGQERELVAAITCGGITYYAESVKGRFTISRDNAKNTVYFLMTSLKPEDTVVYYCAAENKYFYAWGSFVDDEYWGQGTQVTVSS | high polyreactivity |
| QVQLVESGAGLVQAGGSLRLSCAASGLTFIYNAMVWYRQAPGKERELVAAISGNGGDTYYADSVKGRFTLSRDNAKNTVYLQMNSLKPEDTAVYYCAADYAYTPITCDEYWGQGTKVTVSS | low polyreactivity |
| QVQLVESGGGLVQAGGSLRLSCAASGRIIVLYAMGWYRQAPGKERELVASIRSGGSTNYADSVKGRFTISRDNAKNTVYLQMNSLKPEDTAVYYCAARPDHKRYDYWGQGTQVTVSS | low polyreactivity |
| QVQLVESGGGLVQAGGSLRLSCAASGSIIGDNTKGWYRQAPGKERELVAAISWRGGSTYYADSVKGRFTISLDNAKNTVFLQMNSLKPEDTAVYYCIGGPGGYDYWGQGSQVTVSS | low polyreactivity |
| QVQIVESWGCLVQAGGSLRLSCAASVNIFNVNAMGWSRQAPRKEREFLAAITSGANSYYADSEKGRFTISRDNAKNSVFLQMNSLKPEDTAVYYCAAEDGSYYRRNRFYYWGQGTQVTVSS | high polyreactivity |
| QVQLVESGGGLVQSGGSLRLSCAASGFIFKLNAMGWYRPAPGKERELVATITRGGDTKYADSVKGRFTISRDNAKNTVYLQMNSLKPEDTAVEYCAARYTPSSYIYRFYNFYGYDYWGQGTQVTVSS | high polyreactivity |
| QVQLVESGGGLVQAGGSLRLSCAASGRTIKYNAMGRYRQGPGKERELVAAITYSGGSTYYADSVKGRFTIARDNAKNTVYLQMNSLKPEDTSVYYCAAESRPYDPGIYGDYDYWGQGTQVTVSS | low polyreactivity |
| QFQIVESGGGLVQAGGSLRLSCASSGLIFYKYAMGWYRQAPGKERELVARISYTGGITSYADSVKGRFTISRDNAKNTVYLQMNSLKPEDTAVYYCAARYTRPFGPFDYWGQGTQVTVSS | low polyreactivity |
| QVQLVESGGGLVQAGGSLRLSCAASGLTFYYYVMGWYRQAPGKERELVAAISYSGGRTYYADSVKGRFTISRDNAKNTVSLQMNSLKPEDTAVYYCAAQSRYGGKFYYWGQGTQVTVSS | high polyreactivity |

| Sequence | polyreactivity (PSR sort gate) |
| --- | --- |
| QVQLVESGGGLVKAGGSLRLSCAASGSIIKRYAMGWYRQARGKERELVAAITQSGGRTYYADSVKGRFTISRDNAKNTVYLQMNSLKPEDTAVYYCNAVRWYLYDYWGQGTQVTVSS | high polyreactivity |
| QVQLVESVGGLVQAGGSLRLSCAASGRTFYGYAMGWYRKAPGKERELVAAISTGGGRTYYADSVKGRFTISRDNAKNTVYLQMNSLKPEDTAVYYCAARRAYPHYRVDYWGQGTQVTVSS | high polyreactivity |
| QVQLVESGGGLVQAGGSLRLSCAASGRTFVPYAMGWYRQAPGKEREFVAAISSRVGSTYYADSVKGRFTISRDNAKNTVYLQMNSLKQEDTAVYYCNAPFKPAGFYSAWKYDYWGQGTQVTVSS | low polyreactivity |
| QVQLVESGGGLVQAGGSLRLSCAASGSISRVYTMGWYRQAPGKQRELVAVIRRSSGSTYYADSLKGRFTISRDNAKNTVYFQMNSLKPEDTAVYYCAARGYYSGQTTIGMDYWGQGTQVTVSS | low polyreactivity |
| QVQIVESGGGLVQAGGSLRLTCAASGRTFYGNAMGWYRQAPGKERDLVADISSRSSSTSYADSVKGRFTISRDNAKYSVYFQMNSLKPEDTAVYYCATRYGYRTWYGYNYWGQGTQVTVSS | high polyreactivity |
| QVQLVESGGGLVQAGGSLRLSCAASGIIFNSYSMGLYRHAPGKERELVAAITYSGTRTYYADSVKGRFTISRDNAKNTVYLQMNCLKPEDTAVYYCNAVTGRGRTITQYDSWGQGTQVTVSS | high polyreactivity |
| QVQLVESGGGLVQAGGSLRLSCAACGFTFAYYAMGWYRQAPGKERELVATITSGGRTYYADSVKGRFTISRDNAKNTVYFQMNSLKPEDTAVYYCAGAGKGRYHFRSTMDYWGQGTQVTVSS | high polyreactivity |
| QVQLVESGGGLVQAGGSLRLSCAASGSTFGYNAMGWYRQAPGKERELVAAINFRSDRTFYADSVKGRFTISRDNAKNTVYLQMNSLKPEDTAVYYCAAKPTTYYGNSDYWGQGTQVTVSS | high polyreactivity |
| QVQLVESGGGLVQAGGSLRLSCAASGITFSNYAIGWYRQAPGKERELVAAISKRGGSTYYADSVKGRFTISRDNAKNTVYLQMNSLKPEDTAVYYCAAAGVRVYVRSGLDYWGQGTQVTVSS | high polyreactivity |
| QVQLVESGGGLVQAGGSLRLSCAASGRTFAGYVMGWYRQAPGKERELVAAISTSGGSTRYADSVKGRFTISRDNAKNTVYLQMNSLKPEDTAVYYCAKLLYLGRWRFPAGYNHWGQGTQVTVSS | high polyreactivity |
| QVQLVESGGGLVQAGGSLRLSCAASGSTFHNYAMGWYRQAPGKERELVAGISVRGGGTYYADSVKGRFTISRDNAKNTVYLQMNSLKPEDTAVYYCAKRSRYYYRYDYWGQGTQVTVSS | high polyreactivity |
| QVQLVESGGGLVQAGGSLRISCAASGRIFYVYAMGWYRQAPGKERELVAAITSGGSTYYADSVKGRFTISRDNAKNTVYLQMNSLKPEDTAVYYCAAYNRGRFRPYRFEYWGQGTQVTVSS | high polyreactivity |
| QVQLVESGGGLVQAGGSLRLSCAASGSTFLIKAMGWYRQAPGKEREVVASIRYRGATTYADSVKGRFTISRDNAKNTVYLQLKSLKPEDTAVYYCAAVHWRYQYSLRYDYWGQGTQVTVSW | high polyreactivity |
| QVQLVESGGGIVQAGGSLRLSCAASGRTLQIYAMGRYRQAPGKERELVAAISSSGGSTYYADSVKGRFTISRDNEKNTVYLQMNSLKPEDTAVYYCAVDGYGYKDDYWGQGTQVTVSS | high polyreactivity |
| QVQLVESGGGLVQAGGSLRLSWAASGITFDLYAMGWYRPAPGKEREFVATISWTGGTTYYADSVKGRFTISRDNAKNTVDLQMISLKPEVPAASYCNKGSDFFWYDYDYCGQGTQVTVSS | low polyreactivity |
| QVQLVESGGGLVQAGGSLRLICAASGLTFAGYAMGWYRQAPGKERELVAAITYSTGRTYYADSVKGRFTISRDNAKNTVYLQMNSLKPEDTAVYYCAALLRGQDRTMDYWGQGTQVTVSS | high polyreactivity |
| QVQLVESGGGLVQAGGSLRLSCAASGFTFYRYDMGWYRQAPGKERELVAAITNNGGKTYYADSVKGRITISRDNAKYSDYLQMNSLKPVDTAVYYSAAEFYWGDLSYWGQGTQVTVSS | high polyreactivity |
| QVQLVESGGGLVQAGGSLRLSCAASGSIFDIYAMGWYRQAPGKERELVATITWDGVSTYYADSVKGRFTISRDNAKNTVYLQMNSLKPEDTAVYYCNVVVRYPSAYDYWGQGTQVTVSS | high polyreactivity |
| QVQLVESGGGLVQAGGSLRLSCADSVFIFYLNAMGWYRQAPRKERELVATITNRGGSTYFADSVKGRFTISRDNAKNTVYLQMNSLKPEDTAVYYCAARTRERYSKPYFYRRFGYWGQGTQVTVSS | low polyreactivity |
| QVQLVESGGGLVQAGGSLRLSCAASGFTFPENAMGWYRQAPGKERELVAAISYRGASTFYADSVKGRFTISRDNAKNTVYLQMNSLKPEDTAVYYCATDPRIRYQGNPYDYWGQGTKVTVSS | high polyreactivity |
| QVQLVESGGGLVQAGGSLRLSCAASGRTFIKYAMGWYRQAPGKERELVAAITYSAGSTSYADSVKGRFTISRDNAKNTVYLQMNSLKPEDTAVYYCNAVPTWWTQEVGSYKSLGYWGQGTQVTVSS | low polyreactivity |
